Assay results from article PMC4619830.

Target: T1, SoxR (MerR-type HTH transcriptional regulator) (Acinetobacter baumannii AYE) (UniProt C7FFS1)
T1 sequence: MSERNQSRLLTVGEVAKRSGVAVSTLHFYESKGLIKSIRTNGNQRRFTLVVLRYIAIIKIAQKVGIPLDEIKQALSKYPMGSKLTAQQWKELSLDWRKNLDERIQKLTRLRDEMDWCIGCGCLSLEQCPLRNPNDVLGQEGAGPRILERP
Assay: EMSA
Conditions: not stated (gel shift as described previously, 20)

GGCTGCTCGGTATGATGTCGTTAATTAACAGAAGTAAATGCCGCTTCGAGATTTTGTGATGATCAACGAGCGGTATAAAAAAGACAAGTAGAATTAAACAATAAATGTAATTAAGACAAAAACAAAGCGTGATTGAATATTTCCAACAAACCAATAAAAAACCAGTTAACGAGTGTCACTTAAAATTCATGAATTCTTCATGATCATGTCAAACAAAGCA (double strand) [abeD promoter fragment]
binding: binds
